T1: LZTR1 R810W-FLAG (human, UniProt Q8N653 1-840)
T1 construct: Stably expressed in U87 cells by lentivirus; also called LZTR1-FLAG-R810W; LZTR1 RW; not shown: FLAG tag
T1 sequence (looked up): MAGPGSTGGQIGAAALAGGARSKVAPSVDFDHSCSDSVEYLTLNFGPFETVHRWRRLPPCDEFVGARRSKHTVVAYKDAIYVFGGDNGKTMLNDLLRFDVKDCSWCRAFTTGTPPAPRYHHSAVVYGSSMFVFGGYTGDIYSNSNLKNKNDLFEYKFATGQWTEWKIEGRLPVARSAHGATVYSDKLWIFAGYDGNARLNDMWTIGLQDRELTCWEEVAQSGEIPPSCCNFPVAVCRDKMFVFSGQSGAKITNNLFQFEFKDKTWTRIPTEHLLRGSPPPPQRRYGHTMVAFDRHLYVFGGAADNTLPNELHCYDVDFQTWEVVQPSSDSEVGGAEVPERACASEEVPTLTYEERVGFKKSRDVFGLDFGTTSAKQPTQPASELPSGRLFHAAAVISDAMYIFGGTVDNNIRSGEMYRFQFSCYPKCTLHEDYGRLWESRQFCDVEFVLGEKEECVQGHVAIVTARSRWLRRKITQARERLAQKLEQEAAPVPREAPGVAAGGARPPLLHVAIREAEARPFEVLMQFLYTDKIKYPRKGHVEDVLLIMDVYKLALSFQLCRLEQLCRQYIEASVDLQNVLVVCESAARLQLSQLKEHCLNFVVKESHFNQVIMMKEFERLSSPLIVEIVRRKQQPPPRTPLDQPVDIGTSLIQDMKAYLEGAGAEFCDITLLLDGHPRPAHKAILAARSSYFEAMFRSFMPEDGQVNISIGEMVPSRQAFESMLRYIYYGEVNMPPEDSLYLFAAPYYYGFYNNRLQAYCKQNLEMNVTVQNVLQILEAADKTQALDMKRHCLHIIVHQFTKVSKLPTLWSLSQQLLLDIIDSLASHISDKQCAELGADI

T2: LZTR1-FLAG (human, UniProt Q8N653 1-840)
T2 construct: Expressed in HEK 293T, HeLa or U87 cells; used as cell lysate; also called LZTR1 wild type-FLAG; LZTR1 WT; not shown: FLAG tag at the C-terminus
T2 sequence (looked up): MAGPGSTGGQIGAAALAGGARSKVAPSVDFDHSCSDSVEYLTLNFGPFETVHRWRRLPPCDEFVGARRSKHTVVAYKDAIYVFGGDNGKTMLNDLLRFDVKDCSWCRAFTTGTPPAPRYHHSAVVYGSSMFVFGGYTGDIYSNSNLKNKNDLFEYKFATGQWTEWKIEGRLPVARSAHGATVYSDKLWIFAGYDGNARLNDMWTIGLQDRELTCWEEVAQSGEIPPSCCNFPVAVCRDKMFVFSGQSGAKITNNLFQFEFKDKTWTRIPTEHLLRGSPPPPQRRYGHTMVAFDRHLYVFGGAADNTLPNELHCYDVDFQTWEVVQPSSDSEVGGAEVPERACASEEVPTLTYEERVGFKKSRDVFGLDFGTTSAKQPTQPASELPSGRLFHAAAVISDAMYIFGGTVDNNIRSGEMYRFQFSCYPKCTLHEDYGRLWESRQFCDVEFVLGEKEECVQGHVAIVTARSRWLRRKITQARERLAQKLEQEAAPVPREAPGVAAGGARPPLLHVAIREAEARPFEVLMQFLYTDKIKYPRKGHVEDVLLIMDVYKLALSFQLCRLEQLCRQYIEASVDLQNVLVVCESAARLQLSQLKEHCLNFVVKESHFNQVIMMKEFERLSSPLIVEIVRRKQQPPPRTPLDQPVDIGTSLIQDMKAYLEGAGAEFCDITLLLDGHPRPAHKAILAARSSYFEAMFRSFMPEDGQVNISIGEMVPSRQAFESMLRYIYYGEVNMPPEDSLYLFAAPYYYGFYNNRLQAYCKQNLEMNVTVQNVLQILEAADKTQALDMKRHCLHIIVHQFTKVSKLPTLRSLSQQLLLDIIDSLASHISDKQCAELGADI

B1: CY P51A1 (other, human, UniProt Q16850 1-509, looked up)
chain: MAAAAGMLLLGLLQAGGSVLGQAMEKVTGGNLLSMLLIACAFTLSLVYLIRLAAGHLVQLPAGVKSPPYIFSPIPFLGHAIAFGKSPIEFLENAYEKYGPVFSFTMVGKTFTYLLGSDAAALLFNSKNEDLNAEDVYSRLTTPVFGKGVAYDVPNPVFLEQKKMLKSGLNIAHFKQHVSIIEKETKEYFESWGESGEKNVFEALSELIILTASHCLHGKEIRSQLNEKVAQLYADLDGGFSHAAWLLPGWLPLPSFRRRDRAHREIKDIFYKAIQKRRQSQEKIDDILQTLLDATYKDGRPLTDDEVAGMLIGLLLAGQHTSSTTSAWMGFFLARDKTLQKKCYLEQKTVCGENLPPLTYDQLKDLNLLDRCIKETLRLRPPIMIMMRMARTPQTVAGYTIPPGHQVCVSPTVNQRLKDSWVERLDFNPDRYLQDNPASGEKFAYVPFGAGRHRCIGENFAYVQIKTIWSTMLRLYEFDLIDGYFPTVNYTTMIHTPENPVIRYKRRSK
notes: Printed as CY P51A1; read as CYP51A1
B2: DHX32 (other, human, UniProt Q7L7V1 1-743, looked up)
chain: MEEEGLECPNSSSEKRYFPESLDSSDGDEEEVLACEDLELNPFDGLPYSSRYYKLLKEREDLPIWKEKYSFMENLLQNQIVIVSGDAKCGKSAQVPQWCAEYCLSIHYQHGGVICTQVHKQTVVQLALRVADEMDVNIGHEVGYVIPFENCCTNETILRYCTDDMLQREMMSNPFLGSYGVIILDDIHERSIATDVLLGLLKDVLLARPELKLIINSSPHLISKLNSYYGNVPVIEVKNKHPVEVVYLSEAQKDSFESILRLIFEIHHSGEKGDIVVFLACEQDIEKVCETVYQGSNLNPDLGELVVVPLYPKEKCSLFKPLDETEKRCQVYQRRVVLTTSSGEFLIWSNSVRFVIDVGVERRKVYNPRIRANSLVMQPISQSQAEIRKQILGSSSSGKFFCLYTEEFASKDMTPLKPAEMQEANLTSMVLFMKRIDIAGLGHCDFMNRPAPESLMQALEDLDYLAALDNDGNLSEFGIIMSEFPLDPQLSKSILASCEFDCVDEVLTIAAMVTAPNCFSHVPHGAEEAALTCWKTFLHPEGDHFTLISIYKAYQDTTLNSSSEYCVEKWCRDYFLNCSALRMADVIRAELLEIIKRIELPYAEPAFGSKENTLNIKKALLSGYFMQIARDVDGSGNYLMLTHKQVAQLHPLSGYSITKKMPEWVLFHKFSISENNYIRITSEISPELFMQLVPQYYFSNLPPSESKDILQQVVDHLSPVSTMNKEQQMCETCPETEQRCTLQ
B3: ELAC2 (other, human, UniProt Q9BQ52 17-826, looked up)
chain: SQGRTISQAPARRERPRKDPLRHLRTREKRGPSGCSGGPNTVYLQVVAAGSRDSGAALYVFSEFNRYLFNCGEGVQRLMQEHKLKVARLDNIFLTRMHWSNVGGLSGMILTLKETGLPKCVLSGPPQLEKYLEAIKIFSGPLKGIELAVRPHSAPEYEDETMTVYQIPIHSEQRRGKHQPWQSPERPLSRLSPERSSDSESNENEPHLPHGVSQRRGVRDSSLVVAFICKLHLKRGNFLVLKAKEMGLPVGTAAIAPIIAAVKDGKSITHEGREILAEELCTPPDPGAAFVVVECPDESFIQPICENATFQRYQGKADAPVALVVHMAPASVLVDSRYQQWMERFGPDTQHLVLNENCASVHNLRSHKIQTQLNLIHPDIFPLLTSFRCKKEGPTLSVPMVQGECLLKYQLRPRREWQRDAIITCNPEEFIVEALQLPNFQQSVQEYRRSAQDGPAPAEKRSQYPEIIFLGTGSAIPMKIRNVSATLVNISPDTSLLLDCGEGTFGQLCRHYGDQVDRVLGTLAAVFVSHLHADHHTGLPSILLQRERALASLGKPLHPLLVVAPNQLKAWLQQYHNQCQEVLHHISMIPAKCLQEGAEISSPAVERLISSLLRTCDLEEFQTCLVRHCKHAFGCALVHTSGWKVVYSGDTMPCEALVRMGKDATLLIHEATLEDGLEEEAVEKTHSTTSQAISVGMRMNAEFIMLNHFSQRYAKVPLFSPNFSEKVGVAFDHMKVCFGDFPTMPKLIPPLKALFAGDIEEMEERREKRELRQVRAALLSRELAGGLEDGEPQQKRAHTEEPQAKKVRAQ
B4: GBE1 (other, human, UniProt Q04446 2-702, looked up)
chain: AAPMTPAARPEDYEAALNAALADVPELARLLEIDPYLKPYAVDFQRRYKQFSQILKNIGENEGGIDKFSRGYESFGVHRCADGGLYCKEWAPGAEGVFLTGDFNGWNPFSYPYKKLDYGKWELYIPPKQNKSVLVPHGSKLKVVITSKSGEILYRISPWAKYVVREGDNVNYDWIHWDPEHSYEFKHSRPKKPRSLRIYESHVGISSHEGKVASYKHFTCNVLPRIKGLGYNCIQLMAIMEHAYYASFGYQITSFFAASSRYGTPEELQELVDTAHSMGIIVLLDVVHSHASKNSADGLNMFDGTDSCYFHSGPRGTHDLWDSRLFAYSSWEILRFLLSNIRWWLEEYRFDGFRFDGVTSMLYHHHGVGQGFSGDYSEYFGLQVDEDALTYLMLANHLVHTLCPDSITIAEDVSGMPALCSPISQGGGGFDYRLAMAIPDKWIQLLKEFKDEDWNMGDIVYTLTNRRYLEKCIAYAESHDQALVGDKSLAFWLMDAEMYTNMSVLTPFTPVIDRGIQLHKMIRLITHGLGGEGYLNFMGNEFGHPEWLDFPRKGNNESYHYARRQFHLTDDDLLRYKFLNNFDRDMNRLEERYGWLAAPQAYVSEKHEGNKIIAFERAGLLFIFNFHPSKSYTDYRVGTALPGKFKIVLDSDAAEYGGHQRLDHSTDFFSEAFEHNGRPYSLLVYIPSRVALILQNVDLPN
B5: GLE1 (other, human, UniProt Q53GS7 1-698, looked up)
chain: MPSEGRCWETLKALRSSDKGRLCYYRDWLLRREDVLEECMSLPKLSSYSGWVVEHVLPHMQENQPLSETSPSSTSASALDQPSFVPKSPDASSAFSPASPATPNGTKGKDESQHTESMVLQSSRGIKVEGCVRMYELVHRMKGTEGLRLWQEEQERKVQALSEMASEQLKRFDEWKELKQHKEFQDLREVMEKSSREALGHQEKLKAEHRHRAKILNLKLREAEQQRVKQAEQERLRKEEGQIRLRALYALQEEMLQLSQQLDASEQHKALLKVDLAAFQTRGNQLCSLISGIIRASSESSYPTAESQAEAERALREMRDLLMNLGQEITRACEDKRRQDEEEAQVKLQEAQMQQGPEAHKEPPAPSQGPGGKQNEDLQVKVQDITMQWYQQLQDASMQCVLTFEGLTNSKDSQAKKIKMDLQKAATIPVSQISTIAGSKLKEIFDKIHSLLSGKPVQSGGRSVSVTLNPQGLDFVQYKLAEKFVKQGEEEVASHHEAAFPIAVVASGIWELHPRVGDLILAHLHKKCPYSVPFYPTFKEGMALEDYQRMLGYQVKDSKVEQQDNFLKRMSGMIRLYAAIIQLRWPYGNRQEIHPHGLNHGWRWLAQILNMEPLSDVTATLLFDFLEVCGNALMKQYQVQFWKMLILIKEDYFPRIEAITSSGQMGSFIRLKQFLEKCLQHKDIPVPKGFLTSSFWRS
B6: FADS1 (other, human, UniProt O60427 1-444, looked up)
chain: MAPDPVAAETAAQGPTPRYFTWDEVAQRSGCEERWLVIDRKVYNISEFTRRHPGGSRVISHYAGQDATDPFVAFHINKGLVKKYMNSLLIGELSPEQPSFEPTKNKELTDEFRELRATVERMGLMKANHVFFLLYLLHILLLDGAAWLTLWVFGTSFLPFLLCAVLLSAVQAQAGWLQHDFGHLSVFSTSKWNHLLHHFVIGHLKGAPASWWNHMHFQHHAKPNCFRKDPDINMHPFFFALGKILSVELGKQKKKYMPYNHQHKYFFLIGPPALLPLYFQWYIFYFVIQRKKWVDLAWMITFYVRFFLTYVPLLGLKAFLGLFFIVRFLESNWFVWVTQMNHIPMHIDHDRNMDWVSTQLQATCNVHKSAFNDWFSGHLNFQIEHHLFPTMPRHNYHKVAPLVQSLCAKHGIEYQSKPLLSAFADIIHSLKESGQLWLDAYLHQ

Assays:
[1] = biological target: T1, LZTR1 R810W-FLAG; experiment: IP/MS, LZTR1 R810W-FLAG, U87
Summary of the method: (§1)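 Gel slices were reduced with 5 mM DTT, alkylated with 11 mM IAA and digested overnight at 37° C. with trypsin. Peptides were analysed on an Orbitrap Fusion Tribrid by LC-MS/MS.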

[2] = biological target: T2, LZTR1-FLAG; experiment: IP/MS, LZTR1 wild type-FLAG, U87
Summary of the method: as §1

Row | Binder | binding result [1] | binding result [2]
1 | B1 | binds | binds
2 | B2 | binds | binds
3 | B3 | binds | binds
4 | B4 | binds | binds
5 | B5 | binds | binds
6 | B6 | binds | binds

Reference: patent US20250262210A1 (TRUSTEES OF COLUMBIA UNIVERSITY IN THE CITY OF NEW YORK, published 2025)
